Experimental data reported in patent publication US20170002055A1, “Novel peptides and combination of peptides for use in immunotherapy against ovarian cancer and other cancers” (immatics biotechnologies GmbH, priority 2015, published 2017).

target: HLA-A*02:01 (Homo sapiens, UniProt P04439, D140Y/D185E/D98H/E176V/E277Q/G131W/G231S/I119V/I121R/I166T/I218V/L300P/L318F/N151K/N90K/P208A/P217A/Q86G/Q94H/R138H/R169H/T345S); test: MHC binding assay (UV-ligand exchange, β2m ELISA, peptide exchange yield); conditions: MHC class I binding score; binding to HLA-A*02:01 ranged by peptide exchange yield (UV-ligand exchange, β2m ELISA)
Summary of the method: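 Peptide–HLA-A*02:01 complexes were formed by UV-mediated exchange of a UV-cleavable ligand for the test peptide. Exchange yield was measured by capturing complexes on streptavidin, detecting with HRP anti-β2m antibody (1 h, 37°C) and reading TMB absorbance at 450 nm.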

Row | Peptide exchange | Substance
1 | “+++” (≧50 = +++) | 481 (GLIEDYEALL; listed as Homo sapiens) [compound 481]
2 | “+++” (≧50 = +++) | 484 (SLIEKVTQL; listed as Homo sapiens) [compound 484]
3 | “+++” (≧50 = +++) | 485 (NVPDSFNEV; listed as Homo sapiens) [compound 485]
4 | “+++” (≧50 = +++) | 486 (AVMESIQGV; listed as Homo sapiens) [compound 486]
5 | “+++” (≧50 = +++) | 487 (LLINSVFHV; listed as Homo sapiens) [compound 487]
6 | “+++” (≧50 = +++) | 488 (FLAEDPKVTL; listed as Homo sapiens) [compound 488]
7 | “+++” (≧50 = +++) | 490 (FLLQHVQEL; listed as Homo sapiens) [compound 490]
8 | “++” (≧20% = ++) | 491 (GLNDRSDAV; listed as Homo sapiens) [compound 491]
9 | “+++” (≧50 = +++) | 492 (SLFDGFADGLGV; listed as Homo sapiens) [compound 492]
10 | “+++” (≧50 = +++) | 493 (GLLGEKTQDLIGV; listed as Homo sapiens) [compound 493]
11 | “++” (≧20% = ++) | 494 (ALQPEPIKV; listed as Homo sapiens) [compound 494]
12 | “+++” (≧50 = +++) | 495 (FIFSEKPVFV; listed as Homo sapiens) [compound 495]
13 | “+++” (≧50 = +++) | 496 (FLVEKQPPQV; listed as Homo sapiens) [compound 496]
14 | “+++” (≧50 = +++) | 497 (GLLEKLTAI; listed as Homo sapiens) [compound 497]
15 | “+++” (≧50 = +++) | 498 (KLWTGGLDNTV; listed as Homo sapiens) [compound 498]
16 | “+++” (≧50 = +++) | 500 (SLMEDQVLQL; listed as Homo sapiens) [compound 500]
17 | “+++” (≧50 = +++) | 501 (LLDPNVKSIFV; listed as Homo sapiens) [compound 501]
18 | “+++” (≧50 = +++) | 502 (RLLAQVPGL; listed as Homo sapiens) [compound 502]
19 | “+++” (≧50 = +++) | 503 (SLNHFTHSV; listed as Homo sapiens) [compound 503]
20 | “++” (≧20% = ++) | 504 (GLSDGNPSL; listed as Homo sapiens) [compound 504]
21 | “++” (≧20% = ++) | 505 (SLAPGDVVRQV; listed as Homo sapiens) [compound 505]
22 | “+++” (≧50 = +++) | 506 (KLLGKVETA; listed as Homo sapiens) [compound 506]
23 | “+++” (≧50 = +++) | 507 (KLIDDQDISISL; listed as Homo sapiens) [compound 507]
24 | “+++” (≧50 = +++) | 508 (ILAQEQLVVGV; listed as Homo sapiens) [compound 508]
25 | “+++” (≧50 = +++) | 509 (FLFDTKPLIV; listed as Homo sapiens) [compound 509]
26 | “++” (≧20% = ++) | 510 (KLYSVVSQL; listed as Homo sapiens) [compound 510]
27 | “+++” (≧50 = +++) | 512 (SLSEIVPCL; listed as Homo sapiens) [compound 512]
28 | “++” (≧20% = ++) | 513 (SLWPSPEQL; listed as Homo sapiens) [compound 513]
29 | “+++” (≧50 = +++) | 514 (ILVDWLVQV; listed as Homo sapiens) [compound 514]
30 | “+++” (≧50 = +++) | 515 (LLQELVLFL; listed as Homo sapiens) [compound 515]

Second part, the substance before the results:

Row | Substance | Peptide exchange
31 | 449 (KLAEGLDIQL; listed as Homo sapiens) [compound 449] | “+++” (≧50 = +++)
32 | 450 (FMIDASVHPTL; listed as Homo sapiens) [compound 450] | “+++” (≧50 = +++)
33 | 451 (LLLLDTVTMQV; listed as Homo sapiens) [compound 451] | “++” (≧20% = ++)
34 | 452 (ILLEHGADPNL; listed as Homo sapiens) [compound 452] | “+++” (≧50 = +++)
35 | 453 (KLLEATSAV; listed as Homo sapiens) [compound 453] | “++” (≧20% = ++)
36 | 455 (SLLKEPQKVQL; listed as Homo sapiens) [compound 455] | “++” (≧20% = ++)
37 | 456 (LLIGHLERV; listed as Homo sapiens) [compound 456] | “+++” (≧50 = +++)
38 | 457 (SLLPGNLVEKV; listed as Homo sapiens) [compound 457] | “+++” (≧50 = +++)
39 | 458 (SLIDKLYNI; listed as Homo sapiens) [compound 458] | “++” (≧20% = ++)
40 | 459 (ALITEVVRL; listed as Homo sapiens) [compound 459] | “++” (≧20% = ++)
41 | 461 (VMFRTPLASV; listed as Homo sapiens) [compound 461] | “++” (≧20% = ++)
42 | 462 (KLAKQPETV; listed as Homo sapiens) [compound 462] | “+++” (≧50 = +++)
43 | 464 (ALNDCIYSV; listed as Homo sapiens) [compound 464] | “+++” (≧50 = +++)
44 | 465 (QLCDLNAEL; listed as Homo sapiens) [compound 465] | “+++” (≧50 = +++)
45 | 466 (VLIANLEKL; listed as Homo sapiens) [compound 466] | “++++” (≧75% = ++++)
46 | 467 (FLAKDFNFL; listed as Homo sapiens) [compound 467] | “+++” (≧50 = +++)
47 | 468 (YLRSVGDGETV; listed as Homo sapiens) [compound 468] | “+++” (≧50 = +++)
48 | 469 (YLASDEITTV; listed as Homo sapiens) [compound 469] | “+++” (≧50 = +++)
49 | 471 (YLYNNMIAKI; listed as Homo sapiens) [compound 471] | “+++” (≧50 = +++)
50 | 472 (KLLEVSDDPQV; listed as Homo sapiens) [compound 472] | “+++” (≧50 = +++)
51 | 473 (AMATESILHFA; listed as Homo sapiens) [compound 473] | “+++” (≧50 = +++)
52 | 474 (YLDPALELGPRNV; listed as Homo sapiens) [compound 474] | “+++” (≧50 = +++)
53 | 475 (LLLNEEALAQI; listed as Homo sapiens) [compound 475] | “+++” (≧50 = +++)
54 | 476 (ALMERTGYSMV; listed as Homo sapiens) [compound 476] | “+++” (≧50 = +++)
55 | 477 (ALLPASGQIAL; listed as Homo sapiens) [compound 477] | “+++” (≧50 = +++)
56 | 478 (YLLHEKLNL; listed as Homo sapiens) [compound 478] | “+++” (≧50 = +++)
57 | 479 (SLFGNSGILENV; listed as Homo sapiens) [compound 479] | “+++” (≧50 = +++)
58 | 480 (ALLEDSCHYL; listed as Homo sapiens) [compound 480] | “+++” (≧50 = +++)
